{"source": "patent US20210244806A1", "about": "“Recombinant Protease Inhibitor-Containing Compositions, Methods for Producing Same and Uses Thereof” (ORAMED LTD., priority 2018, published 2021)", "molecules": {"B1": {"name": "rBBI: recombinant Bowman-Birk type proteinase inhibitor, codon-optimized (SEQ ID NO: 1), secreted from Pichia pastoris GS115, clone B17 (protein, listed as Pichia pastoris)", "chain": "DDESSKPCCDQCACTKSNPPQCRCSDMRLNSCHSACKSCICALSYPAQCFCVDITDFCYEPCKPSEDDKEN"}}, "key": {"chymotrypsin": {"target": "chymotrypsin (Bos taurus, UniProt P00766)", "test": "Chymotrypsin Inhibition Assay", "assay_type": "biochemical", "experimental": "FIG. 4. Chymotrypsin Inhibition Assay.\nUnless indicated otherwise, anti-chymotrypsin activity referred to herein is measured using chymotrypsin having an activity of 40 BTEE units per mg. of chymotrypsin, and is expressed in mg. of chymotrypsin inhibited per mg. of protein being tested. BTEE refers to N-Benzoyl-L-Tyrosine Ethyl Ester (see the directions for Sigma-Aldrich Product No. B6125).\n(§1) Protease inhibitor enzymatic activity was verified for the recombinant product, and demonstrable inhibition of chymotrypsin activity was achieved (FIG. 4) as well as inhibition of trypsin activity (FIG. 5)."}, "trypsin": {"target": "T1, trypsin (Bos taurus, UniProt P00760)", "T1 sequence (P00760 24-246)": "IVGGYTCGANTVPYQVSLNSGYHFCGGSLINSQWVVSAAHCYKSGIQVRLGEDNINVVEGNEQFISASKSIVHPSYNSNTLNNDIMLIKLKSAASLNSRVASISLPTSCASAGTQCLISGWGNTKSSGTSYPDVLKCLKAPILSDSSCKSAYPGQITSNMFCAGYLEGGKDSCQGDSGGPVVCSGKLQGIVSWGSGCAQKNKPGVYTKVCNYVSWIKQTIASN", "test": "Trypsin Inhibition Assay", "assay_type": "biochemical", "experimental": "FIG. 5. Trypsin Inhibition Assay.\nUnless indicated otherwise, anti-trypsin activity referred to herein is measured using trypsin having an activity of 10,000 BAEE units per mg. of trypsin, and is expressed in mg. of trypsin inhibited per mg. of protein being tested. BAEE refers to Na-Benzoyl-L-Arginine Ethyl Ester Solution (see the directions for Sigma-Aldrich Product No. B4500). For example, in a typical assay, one unit corresponds to the amount of inhibitor that reduces the trypsin activity by one benzoyl-L-arginine ethyl ester unit (BAEE-U). One BAEE-U is the amount of enzyme that increases the absorbance at 253 nm by 0.001 per minute at pH 7.6 and 25° C. See, for example, K. Ozawa, M. Laskowski, 1966, J. Biol. Chem. 241:3955; and Y. Birk, 1976, Meth. Enzymol. 45:700.\nas §1"}}, "data": [{"molecule": "B1", "values": [{"measurement": "inhibition of chymotrypsin activity compared to purified SBTI purified from soya", "setting": "chymotrypsin; FIG. 4, result in words", "result": "far greater inhibition of enzymatic activity"}, {"measurement": "chymotrypsin inhibited by 1 mg inhibitor", "setting": "chymotrypsin; FIG. 4, chymotrypsin of 40 BTEE units per mg", "result": "2.3 mg chymotrypsin inhibited by 1 mg inhibitor"}, {"measurement": "inhibition of trypsin activity compared to purified SBTI purified from soya", "setting": "trypsin; FIG. 5, result in words", "result": "far greater inhibition of enzymatic activity"}, {"measurement": "trypsin inhibited by 1 mg inhibitor", "setting": "trypsin; FIG. 5, trypsin of 10,000 BAEE units per mg", "result": "1.7 mg trypsin inhibited by 1 mg inhibitor"}]}]}
